Values joined by “and” are separate entries in the source; they are usually repeats but may differ in a detail not shown here. Equal values may be shown once. “Also recorded” adds a separate entry of the source.

One test deals with PC-9 and A549 cells. In words: Flow cytometry binding of GR6A04 derivatives. The format is cell-based. The protocol:
Cells were harvested as single cell suspensions using trypsin. 1E5 cells were used per sample, and incubated with 100 μl of mAb culture supernatant for 30 min. Cells were then washed with 1% bovine serum albumin in PBS, and further incubated with 100 μl of goat anti-mouse antibody fluorescein isothiocyanate (FITC)-conjugated (1:500, DAKO, Denmark) for 15 min at 4° C. in the dark. Cells were again washed and resuspended in 200 μL of 1% BSA/PBS for analysis on Guava® easy Cyte 8HT Benchtop Flow Cytometer (Merck Millipore, USA). For interrogation of […] binding, cells were fixed with 4% PFA/PBS (Affymetrix, USA) at room temperature for 10 min, washed in PBS, and permeabilised with 0.1% triton/PBS for 5 min at room temperature, before proceeding with incubation with mAb supernatant/primary antibody. For staining with propidium iodide, PI was added to a final concentration of 5 μg/mL for 5 min just prior to analysis by the flow cytometer.
(Flow cytometry measures light scatter and fluorescence of single cells or particles in a stream.)

Test [1] has as its system A549−GR6A04+ cells. In words: Subcutaneous xenograft model. The format is in vivo, NCr Nude mice. To be noted: for tumour growth versus buffer control: 10 mg/kg, 3 doses on D0, D4 and D8, start at tumour size >150 mm3. On the procedure:
Xenograft models were established using A549−GR6A04+ cells in NCr Nude mice. 5E6 cells in DMEM basal media were mixed at a 1:1 ratio with Matrigel, and injected subcutaneously at a volume of 200 μl. Tumours were allowed to form and reach a size of >150 mm^3, before they were randomised into 5 groups of 5 mice each. The groups were treated with mAbs as follows: (1) Buffer control; (2) GR6A04-MMAE; (3) Hu-GR6A04; (4) GR6A04; (5) MG1.45-MMAE isotype control. mAbs were injected via tail vein injection at a total volume of 100 μl. Each dose, were applicable, is at 200 μg (equivalent to 10 mg/kg), and treatment was done every 4 days, for a total of 3 doses (Day 0, 4 and 8). Tumour size was monitored over 50 days.

For a further test, the system named is H1299. In words: ADC dose-response, CellTiter-Glo viability assay. To be noted: H1299 non-binding cells. The test is classed as cell-based. The protocol: (§1) Cells were seeded into a black coated 96 well plate (Grenier Bio-one, UK) at a range of density from 1000-5000 cells per well (depending on the cell type used) and 90 μL per well. The plate was then incubated for 24 hours at 37° C. in humidified air with 5% CO2. After 24 hours, 10 μL of mAb or buffer was added to each well and the plate was again placed at 37° C. in humidified air with 5% CO2. 4 days after addition of mAb or buffer, 100 μL of CTG substrate (Promega, Wisconsin, USA) was added to each well. The plate was then left in the dark for 10 minutes, with vigorous shaking. The cell viability of the samples was then quantified using Tecan I-control (Tecan, Switzerland).
(§2) GR6A04 and a commercial mouse IgG1 isotype antibody (Clone MG1.45 from BioLegend) were directly conjugated with MMAE toxin (Moradec, San Diego, USA) at a DAR of 3.0 and 3.3 respectively. Dose-response curve for the conjugated mAbs were established with the CTG assay with a serial dilution range of 0 to 4.5 μg/ml. The cell viability of the cells was measure 4 days post treatment as described previously.
(ATP-based viability assays read luminescence as a measure of living cells.)

Test [2] deals with A549−GR6A04+ cells. Briefly: ADC dose-response, CellTiter-Glo viability assay. The format is cell-based. To be noted: viability 4 days post treatment. The protocol:
as §1, §2

Test [3] deals with PC-9. Briefly: ADC dose-response, CellTiter-Glo viability assay. The format is cell-based. The conditions noted are these: viability 4 days post treatment. The protocol:
as §1, §2

The next test deals with A549−GR6A04− populations. Briefly: ADC dose-response, CellTiter-Glo viability assay. The format is cell-based. The conditions noted are these: A549−GR6A04− non-binding cells. On the procedure:
as §1, §2

The target of test [4] is PC-9. In words: ADCC reporter bioassay (Promega, Luciferase reporter for FcγR). The format is cell-based. On the procedure: (§3) ADCC activity was measured using a reporter bioassay (Promega; ADCC Reporter Bioassay, #G7010). The ADCC bioassay was carried out according to the manufacturer's protocol Briefly, PC-9 and A549 cells were seeded at 5,000 cells per well in a 96-well clear bottom black tissue culture plates (Corning; #3904) in low 4% IgG-serum (Promega; #G711A) media and allowed to attach and spread overnight. Serial dilutions of Hu-GR6A04 were incubated in triplicate wells for approximately 15 min at 37° C., 5% CO2. Following incubation, engineered effector cells were added to the wells at approximately 150,000 cells per well. After 6 hours, Bio-Glo™ Luciferase Assay Substrate (Promega; #G719A and #G720A) was added to the wells and luminescence was measured using the Infinite® 200 microplate reader (Tecan).
Background: Reporter assays use an easily measured gene product as a stand-in for the process of interest.

The next test deals with A549−GR6A04+. Described as above. The format is cell-based. The protocol: as §3

B1: GR6A04-MMAE (conjugate)
VH: SGPELVKPGASVKMSCKASGNTFTSYVMHWVKQKPGQGLEWIGYINPYNDGTKYNEKFKGKATLTSDKSSSTAYMELSSLTSEDSAVYYCARSTARATPYFYAMDYWGQGTSVTVSS
VL: DILMTQSPSSLAVTAGEKVTMRCKSSQSLLWSVNQNSYLSWYQLKQGQPPKLLLYGASIRESWVPDRFTGSGSGTDFTLTISNVHVEDLAVYYCQHNHGSFLPYTFGGGTKLEIK
For B1, the flow cytometry binding result in the test with PC-9 and A549 cells is “comparable to unconjugated GR6A04; also recorded: not affected after conjugation”. Moreover, the “tumour growth versus buffer control” value with A549−GR6A04+ cells [1] is listed as “little tumour growth”. This molecule also came in with a tumour growth with A549−GR6A04+ cells [1] (I.V. 10 mg/kg, every 4 days for 3 doses, throughout the 45 days of study) of under 2 fold. Moreover, the “effect on cell growth” value with H1299 and in the test with A549−GR6A04− populations was “did not have an effect on cell growth” throughout. Besides, the EC50 (in general, the midpoint of the concentration-response curve) in the test on A549−GR6A04+ cells [2] was 3.33 nM; with PC-9 [3] it was 19.8 nM and 19.6 nM.

B2: Hu-GR6A04: human chimeric mAb with GR6A04 VH and VL cloned into a human Ig constant region backbone, expressed in CHO cells (antibody, V domains shown)
VH: SGPELVKPGASVKMSCKASGNTFTSYVMHWVKQKPGQGLEWIGYINPYNDGTKYNEKFKGKATLTSDKSSSTAYMELSSLTSEDSAVYYCARSTARATPYFYAMDYWGQGTSVTVSS
VL: DILMTQSPSSLAVTAGEKVTMRCKSSQSLLWSVNQNSYLSWYQLKQGQPPKLLLYGASIRESWVPDRFTGSGSGTDFTLTISNVHVEDLAVYYCQHNHGSFLPYTFGGGTKLEIK
For B2, the flow cytometry binding result with PC-9 and A549 cells is “comparable to GR6A04”. For the same molecule, in the test on A549−GR6A04+ cells [1], the “tumour growth versus buffer control” value is reported as “repression of tumour growth; also recorded: slower growth compared to the buffer control”. For the same molecule, the values for the half-maximal effective concentration (EC50) at PC-9 [4] and at A549−GR6A04+ were 39.6 nM and 1.33 nM, respectively.

Values taken from patent US12227570B2, “Anti-CEACAM6 antibodies and methods of use” (Singapore Health Services PTE LTD, priority 2016, dated 2025).
